Measurements taken from patent US10196454B2, “Anti-PMEL17 antibodies and immunoconjugates” (GENENTECH, INC., priority 2012, dated 2019).

Legend:
PMEL17 = target: T1, PMEL17 (Homo sapiens, UniProt P40967); test: Species cross-reactivity by FACS, 293S cells stably transfected with gD tagged PMEL17; assay type: binding; parameters: gD tag (N); expressed in transfected cells; details: 10 μg/ml antibody
T1 sequence (P40967 25-661): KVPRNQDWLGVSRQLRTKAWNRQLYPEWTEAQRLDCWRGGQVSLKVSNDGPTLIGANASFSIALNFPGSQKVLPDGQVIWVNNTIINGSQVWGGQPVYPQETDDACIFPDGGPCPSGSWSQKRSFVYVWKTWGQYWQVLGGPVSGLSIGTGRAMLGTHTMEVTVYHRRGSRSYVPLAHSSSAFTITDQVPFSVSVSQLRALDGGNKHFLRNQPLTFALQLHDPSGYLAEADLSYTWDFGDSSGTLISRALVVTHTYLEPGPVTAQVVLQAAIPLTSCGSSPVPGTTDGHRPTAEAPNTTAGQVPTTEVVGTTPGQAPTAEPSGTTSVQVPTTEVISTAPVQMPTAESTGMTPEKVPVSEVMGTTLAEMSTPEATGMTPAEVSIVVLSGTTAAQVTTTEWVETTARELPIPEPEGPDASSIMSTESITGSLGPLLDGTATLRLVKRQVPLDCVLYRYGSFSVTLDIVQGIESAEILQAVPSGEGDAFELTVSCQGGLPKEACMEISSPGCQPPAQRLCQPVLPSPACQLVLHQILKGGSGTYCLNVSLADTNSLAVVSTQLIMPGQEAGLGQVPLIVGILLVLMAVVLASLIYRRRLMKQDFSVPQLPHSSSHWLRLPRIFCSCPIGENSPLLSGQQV
Procedure: (§1) Antibody 17A9 was tested to determine if it cross-reacts with PMEL17 from species other than human. […] All of the sequences include the signal sequence except for the cynomolgus monkey PMEL17. Residues that are identical among all four species are indicated by asterisks (*). In the region where the rat sequence has a deletion, residues that are identical among the remaining three species are indicated by a plus (+). Binding to each species of PMEL17 was determined by FACS analysis using 293S cells stably transfected with an N-terminal gD tagged PMEL17 (human, cynomolgus monkey, rat, or mouse PMEL17); stained with 10 μg/ml 17A9 antibody; and detected with R-Phycoerythrin conjugated goat anti-mouse antibody.

mouse PMEL17 = target: T2, mouse PMEL17 (Mus musculus, UniProt Q60696); test: as above; assay type: binding; details: 10 μg/ml antibody
T2 construct: gD tag (N); expressed in transfected cells
T2 sequence (Q60696 24-626): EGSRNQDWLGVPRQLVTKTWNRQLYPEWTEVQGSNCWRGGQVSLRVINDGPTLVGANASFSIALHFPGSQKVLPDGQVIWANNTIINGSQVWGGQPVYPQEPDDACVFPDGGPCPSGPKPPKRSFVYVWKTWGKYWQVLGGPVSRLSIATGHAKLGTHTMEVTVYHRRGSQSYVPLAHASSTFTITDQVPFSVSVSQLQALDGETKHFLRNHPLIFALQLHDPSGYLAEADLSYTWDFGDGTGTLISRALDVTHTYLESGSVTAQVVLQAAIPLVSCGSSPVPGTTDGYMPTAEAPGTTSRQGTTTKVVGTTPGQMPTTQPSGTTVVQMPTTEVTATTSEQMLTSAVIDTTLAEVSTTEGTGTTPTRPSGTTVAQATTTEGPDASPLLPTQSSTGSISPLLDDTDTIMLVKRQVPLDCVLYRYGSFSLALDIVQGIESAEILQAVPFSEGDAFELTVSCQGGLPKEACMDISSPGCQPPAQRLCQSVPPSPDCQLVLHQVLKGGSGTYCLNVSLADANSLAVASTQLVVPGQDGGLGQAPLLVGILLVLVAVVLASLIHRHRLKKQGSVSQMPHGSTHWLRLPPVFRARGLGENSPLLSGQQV
Procedure: as §1

cynomolgus monkey PMEL17 = test: as above; assay type: binding; details: 10 μg/ml antibody
Procedure: as §1

rat PMEL17 = test: as above; assay type: binding; details: 10 μg/ml antibody
Procedure: as §1

human PMEL17 [1] = test: FACS screening of anti-PMEL17 hybridoma antibodies on live cells; assay type: binding; details: parental PC3 cell line
human PMEL17 [2] = target: T3, human PMEL17 (Homo sapiens, UniProt P40967); test: as above; assay type: binding; details: live melanoma cells, normal human melanocytes, PC3 cell line stably expressing PMEL17 cDNA
T3 construct: endogenous in cells; host or cells: SK-MEL-23, 1300mel, SKMEL5 (ATCC HTB-70), UACC257, normal melanocytes (Invitrogen); also PC3 stably expressing human PMEL17
T3 sequence (P40967 25-469): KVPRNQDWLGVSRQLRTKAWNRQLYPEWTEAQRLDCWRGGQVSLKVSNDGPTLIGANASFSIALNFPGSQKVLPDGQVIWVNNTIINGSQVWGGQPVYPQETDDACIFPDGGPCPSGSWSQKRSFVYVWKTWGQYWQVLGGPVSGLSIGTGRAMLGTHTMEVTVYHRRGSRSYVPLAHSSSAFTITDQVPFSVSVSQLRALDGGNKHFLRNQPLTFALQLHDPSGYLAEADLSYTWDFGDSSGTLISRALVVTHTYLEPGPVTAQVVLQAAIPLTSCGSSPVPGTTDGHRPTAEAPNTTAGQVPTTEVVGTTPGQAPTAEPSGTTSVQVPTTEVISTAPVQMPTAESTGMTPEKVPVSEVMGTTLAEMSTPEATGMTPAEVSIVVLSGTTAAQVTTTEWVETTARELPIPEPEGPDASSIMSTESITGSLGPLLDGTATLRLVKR
T3 sequence (P40967 470-661): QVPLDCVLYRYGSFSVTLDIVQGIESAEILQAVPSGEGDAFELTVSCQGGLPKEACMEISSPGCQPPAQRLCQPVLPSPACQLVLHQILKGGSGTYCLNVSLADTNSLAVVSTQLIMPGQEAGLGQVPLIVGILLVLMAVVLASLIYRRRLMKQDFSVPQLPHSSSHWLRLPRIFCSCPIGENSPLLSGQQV

1300mel melanoma cells = test: Internalization of anti-PMEL17 antibody, co-staining with lysosomal marker LAMP1; assay type: cell-based
928mel cells = test: Live cell staining and FACS with directly labeled antibodies; assay type: cell-based
Text: The predominance of the N-terminal epitope at the cell surface relative to the cytoplasmic epitope is consistent with stronger FACS signals observed with 17A9 over 77E6. Nevertheless, it appears that some portion of the cytoplasmic region is present at the cell surface to account for the FACS signals observed with 77E6. To address this, live cells were reacted with the 77E6 and 17A9 antibodies that were directly labeled with Alexa Fluors 555 and 488, respectively. […] The binding of the individual antibodies was unaffected by the presence of the other antibody. […] Further, although 17A9 stained all cells uniformly and consistently, 77E6 staining was variable from cell to cell and the overall degree of staining varied across preparations. […] Overall, the uniform and intense reactivity of 17A9 on melanoma cells makes this antibody a good candidate for drug conjugation.

Sequence of cynomolgus monkey PMEL17 (as listed by the source): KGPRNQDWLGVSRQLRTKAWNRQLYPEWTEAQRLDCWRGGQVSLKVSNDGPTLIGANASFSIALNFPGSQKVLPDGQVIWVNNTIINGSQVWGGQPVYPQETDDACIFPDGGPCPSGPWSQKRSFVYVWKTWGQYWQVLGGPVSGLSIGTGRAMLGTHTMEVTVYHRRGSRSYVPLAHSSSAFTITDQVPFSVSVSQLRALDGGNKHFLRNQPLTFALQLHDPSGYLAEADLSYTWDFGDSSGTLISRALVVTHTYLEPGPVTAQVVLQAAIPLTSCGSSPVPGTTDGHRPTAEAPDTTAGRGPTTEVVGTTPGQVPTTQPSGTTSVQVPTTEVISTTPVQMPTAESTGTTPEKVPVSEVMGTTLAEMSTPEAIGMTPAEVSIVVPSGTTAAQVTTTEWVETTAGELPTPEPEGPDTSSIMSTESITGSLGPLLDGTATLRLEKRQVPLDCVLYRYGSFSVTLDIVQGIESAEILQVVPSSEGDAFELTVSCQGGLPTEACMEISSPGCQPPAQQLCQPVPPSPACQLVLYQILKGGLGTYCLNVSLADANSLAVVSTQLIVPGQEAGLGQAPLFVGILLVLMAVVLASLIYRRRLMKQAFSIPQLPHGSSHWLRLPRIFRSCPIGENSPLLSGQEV

B1: 17A9 (antibody, listed as Mus musculus, V domains shown)
VH: EVQLQQSGPELVKPGASMKISCKSSGYSFTRYTMNWVKQSHGKNLEWIGVINPYNGGTVYNQKFKGKATLTVDKSSSTAYMELLSLTSEDSAVYYCARTDYDGYAMDYWGQGTSVTVSS
VL: DVQITQSPSYLAASPGETITINCRATKSISKYLAWYQEQPGKTNNLLIYSGSTLQSGIPSRFSGSGSGTDFTLTISSLEPEDFAMYYCQQHNEYPYTFGSGTKLEIK
With B1 the “binding to human PMEL17 by FACS” value (PMEL17) was “bind”, the “binding to mouse PMEL17 by FACS” value (mouse PMEL17) was “bind” and the “binding to cynomolgus monkey PMEL17 by FACS” value (cynomolgus monkey PMEL17) was “bind”. The “binding to rat PMEL17 by FACS” value (rat PMEL17) was “bind”, the “FACS reactivity with parental PC3 cell line” value (human PMEL17 [1]) was “not the parental PC3 cell line” and the “FACS reactivity with live cells expressing PMEL17” value (human PMEL17 [2]) was “reacted strongly”. For the same molecule, the “overlap of antibody and LAMP1 staining within the cells” value (1300mel melanoma cells; 2 μg/ml, 2 hours or 20 hours, 37° C.) was “considerable overlap”, the “uptake into additional PMEL17+ melanoma cell lines” value (1300mel melanoma cells; 526mel, SK-MEL-5, UACC257) was “Rapid uptake” and the “binding in the presence of the other labeled antibody (competition)” value (928mel cells; 77E6 and 17A9 alone or both together, FACS) was “unaffected”. The “cell surface staining of live-labeled cells” value (928mel cells; Alexa Fluor labeled antibodies) was “uniform cell surface staining”.
